This is an account of results in US20220275027A1 (TRUSTEES OF PRINCETON UNIVERSITY, published 2022).

Where no end group is shown, it is not given here.

B2: FLAG-Cat^C (cleaved from SUMO-Flag-Cat^C) (other)
chain: DYKDDDDKMFKLNTKNIKVLTPSGFKSFSGIQKVYKPFYHHIIFDDGSEIKCSDNHSFGKDKIKASTIKVGDYLQGKKVLYNEIVEEGIYLYDLLNVGEDNLYYTNGIVSHACESRGK
notes: also called 15N,13C FLAG-Cat^C
B3: Cat^N (EFE-Cat^N, cleaved from SUMO-Cat^N) (peptide)
peptide: EFEALSGDTMIEILDDDGIIQKISMEDLYQRLA
modifications: also: 15N,13C isotope-labelled form used in NMR
notes: the range 120-152 (EFEALSG...QRLA) is counted by me from that statement; Isotope-labelled (15N, 13C) in NMR; also called 15N,13C Cat^N

Test [1] deals with T1, Fl-Cat^N (fluorescein labeled Cat^N peptide) (N-terminus capped with 5(6)-carboxyfluorescein).
T1 construct: Made by Fmoc solid phase synthesis; also called FI-Cat^N; Cat^N containing an N-terminal fluorescein
T1 peptide: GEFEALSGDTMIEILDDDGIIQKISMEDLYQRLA
The test is described as follows: one site binding fit of steady-state fluorescence anisotropy, 500 pM Fl-Cat^N, 100 mM NaCl (fit value below the probe concentration).

The target of test [2] is T1, Fl-Cat^N (fluorescein labeled Cat^N …). Put plainly: one site binding fit of steady-state fluorescence anisotropy, 500 pM Fl-Cat^N, 500 mM NaCl (fit value below the probe concentration).
For test [3] the target is unchanged. The test is described as follows: kon2: slope of kobs2 against Cat^C concentration, stopped-flow fluorescence anisotropy, 100 mM NaCl. On the technique in general: In fluorescence polarisation assays a small probe gives low polarisation when free and higher when bound to something large.
The target is the same in test [4]. The test is described as follows: kon1: slope of kobs1 against Cat^C concentration, stopped-flow fluorescence anisotropy, 500 mM NaCl.
The target is the same in test [5]. The test is described as follows: steady-state fluorescence anisotropy, 500 pM Fl-Cat^N, both low (100 mM NaCl) and high (500 mM NaCl) salt.
For test [6] the target is unchanged. The test is described as follows: kon1: slope of kobs1 against Cat^C concentration, stopped-flow fluorescence anisotropy, 100 mM NaCl.
Test [7] has the same target. The test is described as follows: kon2: slope of kobs2 against Cat^C concentration, stopped-flow fluorescence anisotropy, 500 mM NaCl.
Test [8] has as its target B3. Put plainly: circular dichroism and analytical size exclusion chromatography of Cat^N, Cat^C and the complex. (In general: CD spectra are sensitive to the conformation of chiral molecules.)
Test [9] has as its target B2. The test is described as follows: NMR: 1H-15N HSQC, heteronuclear NOE, spin-spin relaxation, Cα-Cβ chemical shift perturbation.

As a reminder, the Kd is the constant that tells how readily two partners part at equilibrium. Usually kon stands for a measure of how fast the partners come together. Low values mean slow association, high ones fast association.

B1: SUMO-Flag-Cat^C (other)
chain: MGSSHHHHHHGSGLVPRGSASMSDSEVNQEAKPEVKPEVKPETHINLKVSDGSSEIFFKIKKTTPLRRLMEAFAKRQGKEMDSLRFLYDGIRIQADQTPEDLDMEDNDIIEAHREQIGGDYKDDDDKMFKLNTKNIKVLTPSGFKSFSGIQKVYKPFYHHIIFDDGSEIKCSDNHSFGKDKIKASTIKVGDYLQGKKVLYNEIVEEGIYLYDLLNVGEDNLYYTNGIVSHACESRGK
notes: also called SUMO-Flag-Cats
For the molecule B1, the Kd in [1] was 0.0339 nM; in test [2], 0.0804 nM; in [5], less than 0.5 nM. The kon in test [3] was determined as 160000 M⁻¹ s⁻¹; in [4], 2.34e+06 M⁻¹ s⁻¹; in test [6] it was 2.8e+06 M⁻¹ s⁻¹; in test [7], 180000 M⁻¹ s⁻¹.
Regarding B2, the binding result in [8] was “binds”.
On to B3, for which the binding result in test [9] was “binds”.
